Values of other authors as cited in PMC12858339.

Molecular target: Calmodulin (Homo sapiens) (UniProt P0DP23)

In the case of HIV-1 MA MA (from UniProt O93182), the Kd is given as 2000 nM.
